In data set [1] the test system is tobacco plants. The experiment in a line: Germination tests of tobacco seeds in the presence of CL 299,263 (imazamox). It counts as in vivo, Nicotiana tabacum. The conditions noted are these: 2.5 μM CL 299,263.
Procedure: Tobacco plants transformed with rationally designed AHAS genes as described in Example 8 above were also tested for cross-resistance to another herbicide, CL 299,263 (also known as imazamox).
A further data set deals with tobacco shoots. The experiment in a line: Root formation of tobacco shoots on medium containing 0.25 μM imazethapyr. The conditions noted are these: 0.25 μM imazethapyr in medium. Format: in vivo, Nicotiana tabacum cv. Wisconsin 38. The protocol:
FIG. 13 is a photograph showing the root development of tobacco plants transformed with the Arabidopsis AHAS gene containing either the Met124Ile or Arg199Glu mutation and a non-transformed control. Plants were grown for 18 days after transfer into medium containing 0.25 μM imazethapyr.
(§1) Leaf disc transformation of Nicotiana tabacum cv. Wisconsin 38 was performed as described by Horsch et al. (Science, 227: 1229-1231, 1985) with slight modifications. Leaf discs were cut from plants grown under sterile conditions and co-cultivated upsidedown in Murashige Skoog media (Sigma Chemical Co., St. Louis, Mo.) for 2-3 days at 25° C. in darkness with Agrobacterium tumefaciens strains containing plasmids pJK002, pJK003, or pJK004. The discs were blotted dry and transferred to regeneration Murashige Skoog medium with B5 vitamins containing 1 mg/L benzyladenine and 0.1 mg/l 1-Napthyl Acetic Acid, 100 mg/L kanamycin, and 500 mg/L cefotaxime (all obtained from Sigma).
Initially, transformants were selected by kanamycin resistance conferred by the nptII gene present in the transformation vector. Shoots derived from the leaf discs were excised and placed on fresh Murashige Skoog hormone free media containing cefotaxime and kanamycin.
Kanamycin-resistant tobacco shoots were transferred to medium containing a 0.25 μM imazethapyr. […]

The test system of data set [2] is Arabidopsis AHAS protein. The conditions noted are these: increasing concentrations of imazethapyr, 5% DMSO; FIGS. 7, 9, 10, 11. The protocol:
(§2) The enzymatic properties of wild-type and variant AHAS produced in E. coli were measured by a modification of the method of Singh et al. (Anal. Biochem […]:173-179, 1988) as follows:
(§3) A reaction mixture containing 1× AHAS assay buffer (50 mM HEPES pH 7.0, 100 mM pyruvate, 10 mM MgCl2, 1 mM thiamine pyrophosphate (TPP), and 50 μM flavin adenine dinucleotide (FAD)) was obtained either by dilution of enzyme in 2× assay buffer or by addition of concentrated enzyme to 1× AHAS assay buffer. All assays containing imazethapyr and associated controls contained a final concentration of 5% DMSO due to addition of imazethapyr to assay mixtures as a 50% DMSO solution. Assays were performed in a final volume of 250 μL at 37° C. in microtiter plates. After allowing the reaction to proceed for 60 minutes, acetolactate accumulation was measured […] as described by Singh et al., Anal. Biochem 171:173-179, 1988.

In data set [3] the test system is Arabidopsis AHAS protein. The conditions noted are these: no herbicide. As to the method: (a) specific or catalytic activity for conversion of pyruvate to acetolactate (expressed as units/mg pure AHAS, wherein a unit of activity is defined as 1 μmole acetolactate produced/hour), or for condensation of pyruvate and 2-ketobutyrate to form acetohydroxybutyrate (expressed as units/mg pure AHAS, wherein a unit of activity is defined as 1μ mole acetohydroxybutyrate produced/hr.;
as §2, §3

In data set [4] the test system is tobacco plants. Briefly: Spraying of transformed tobacco plants with imazethapyr. Format: in vivo, Nicotiana tabacum cv. Wisconsin 38. As to conditions: twice the field rate (100 g/ha) of imazethapyr. The protocol:
as §1
Kanamycin-resistant tobacco shoots were transferred to medium containing a 0.25 μM imazethapyr.

As to `COCc1cnc(C2=NC(C)(C(C)C)C(=O)N2)c(C(=O)O)c1` (stereo not drawn) [CL 299,263, imazamox], in the data set on tobacco plants [1], the “effect on wild-type tobacco plants” value is “severe stunting and bleaching”.
With `CCc1cnc(C2=NC(C)(C(C)C)C(=O)N2)c(C(=O)O)c1` (stereo not drawn) [imazethapyr], in the data set with tobacco shoots, the “root formation of non-transformed tobacco shoots (endogenous wild-type AHAS)” value was “not able to initiate root formation”.

B1: Arg199Glu: Arabidopsis AHAS variant (and gene) with Arg199Glu mutation, corresponding to maize Arg128Glu; vector pJK004 (protein, UniProt P17597 56-670, looked up, variant R199E)
Acetolactate synthase, …: SSSPSSISAVLNTTTNVTTTPSPTKPTKPETFISRFAPDQPRKGADILVEALERQGVETVFAYPGGASMEIHQALTRSSSIRNVLPRHEQGGVFAAEGYARSSGKPGICIATSGPGATNLVSGLADALLDSVPLVAITGQVPREMIGTDAFQETPIVEVTRSITKHNYLVMDVEDIPRIIEEAFFLATSGRPGPVLVDVPKDIQQQLAIPNWEQAMRLPGYMSRMPKPPEDSHLEQIVRLISESKKPVLYVGGGCLNSSDELGRFVELTGIPVASTLMGLGSYPCDDELSLHMLGMHGTVYANYAVEHSDLLLAFGVRFDDRVTGKLEAFASRAKIVHIDIDSAEIGKNKTPHVSVCGDVKLALQGMNKVLENRAEELKLDFGVWRNELNVQKQKFPLSFKTFGEAIPPQYAIKVLDELTDGKAIISTGVGQHQMWAAQFYNYKKPRQWLSSGGLGAMGFGLPAAIGASVANPDAIVVDIDGDGSFIMNVQELATIRVENLPVKVLLLNNQHLGMVMQWEDRFYKANRAHTFLGDPAQEDEIFPNMLLFAAACGIPAARVTKKADLREAIQTMLDTPGPYLLDVICPHQEHVLPMIPSGGTFNDVITEGDGRIKY
Turning to B1, in the data set with Arabidopsis AHAS protein [2], the “resistance of enzymatic activity to imazethapyr (PURSUIT)” value was “improved levels of resistance”. Further, in the data set on Arabidopsis AHAS protein [3] (b134 expresses specific activity as units/mg pure AHAS, 1 unit = 1 μmole acetolactate produced/hour), the “Specific Activity” value came out at 114. Moreover, the “% Catalytic Activity as Compared to Wild Type” value in the data set with Arabidopsis AHAS protein [3] (relative to wild-type AHAS) is 114%. Moreover, the “resistance of transformed tobacco plants to spraying with imazethapyr” value with tobacco plants [4] is reported as “resistant”.

For the origin of these results see patent publication US6576455B1, “Structure-based designed herbicide resistant products” (priority 1995, dated 2003).
